Assay: soluble on expression in E. coli; label from the status in PepcDB or PDB records

Row | Sequence | soluble on expression in E. coli
1 | MGSDKIHHHHHHMKKIQIVDDSQSNIRKLENLLNTHFLVTVARTGEEAVRMAKENVPDLILLEVALPDMDGFETCRRLKAQVESAKIPVIFVSSLKEKEAVIKGFEVGGQDYIIKPFEARELVLRMKSLLKQESSRKRLEQHVKVLEEQNEKLKGKIQKVDRLSRVDFLTNLMNRRDMQEKIRAEINRSIRHGRSFTLAIVDIDFFKNINDTYGHDCGDHVLKHFVSTLKNSVRSSDYVSRWGGEEFLLLFPETKLEEGKRACEKIRQKINESPVIYKGMSISITATFGISEYRPSVRIEELIKAADDALYKGKKTGKNQVVVQSM | not soluble
2 | MGSDKIHHHHHHMKKIRFAAIGLAHNHIYDMCQQLIDAGAELAGVFESDSDNRAKFTSLFPSVPFAASAEQLITDASIDLIACAVIPCDRAELALRTLDAGKDFFTAKPPLTTLEQLDAVQRRVAETGRKFAVYFNERINVDSALFAGELVQRGEIGRVIQTMGVGPHRERGARPDWFYQKRQYGGILCDIGIHQIEQFLYFTGNTNARVVTSQTANYHHPHHPEFEDFGDAMLLGDNGATGYFRCDWFTPDGLSVWGDGRLTILGTEGYIEIRKYVDLTRGESNVVYLVNGKGEQRFTPAGSVERAFFPDFLRDCRERTENAMSQSHIFKATELSILAQQAANKIA | not soluble
3 | MGSDKIHHHHHHMKKKLKIGISACVMGEPVRFDRGHKKSGFCMEQLAEFAEFKPVCPEMAIGLPVPRPTIRQIVRDNIITVSRPDGSGDVTQALKEFGAKAALNYQELAGFVFCAKSPSCGMERVKVYHHHGKGSESTGVGIFAEQVMKANPLLPCEENGRLNDPIIRENFTTRIFTYQKWLDLKAEGLTRHKLIQFHSAHKYLVMSHHVESYRELGRLLGRADIGLEEQSERYISGLMQALKHKASRRSHTNTLQHLQGYFKRQLDEHKRRELTQEIAAYREGLSPLLVPLTLIKHYLIEFPNEYLLQQAYLNPHPKELRLRYGY | not soluble
4 | MGSDKIHHHHHHMKKQFEMYFSLGTLIGYMHDNKLIATGGVFPFKDSFSTIGMLIVHPNFQGQGIGRTLLNHCLAHTHPKQPIALIATKAGEPLYTSCGFQTVTTIHRFEKQTTKTHITHTQQVKEKDIISLISLDQSTTGADRSLLYSLLLPRTSHSFKIERHNCIEAFSLCIQKGNILCINPLIAKREEDAIQLLQKICECWNGTVRLDVPHSQFSFRKLLQTENFQETLLSPLMIKNGSQLPGNRNMLFAMIDTALC | not soluble
5 | MGSDKIHHHHHHMKLIAVGDNVVDYYQDQETFYPGGNALNVAVLAKRLGHESSYIGIVGNDEAAAHLLNVLKLEQVNADYIRQAHGENGMAIVTLDEQGDRIFVRSNKGGIQSRLRLAFQEKDVSFISGHDLLHTSVYSRLENDLPQLCGLVPVSFDFSTNREDDYLRRVCPYVTYAFFSGSDLSESECGELAKTAHGYGAKMVCMTRGGQGAILSAGDRVYHQPIVEADIIDTLGAGDSFIAGFLTAFCVKQDITYALRQAAETAAKTCGVYGAFGYGYPYRLEDGGSSEKTRIL | not soluble
6 | MGSDKIHHHHHHMKLLHIERHTTCLNYVSDYNICFIHQRLFSGGDFKIDNHHHSCILFLLKGEILTSCSEFHDQHIVEGHMVLFPQNDPNQSKSMTETEFILLFFDNQVNLHNKMSIELSAIHLESEKSCFYSLSICPPLRHVLDSICFYLKQKVQCSHMHELKQKEIFMVFGTFYNRTDMAHFLMPITGRDPNFKSFVLENYLQIRNIKQFAQLYHCSERSFNRKFKSCFHDTPYNWILNQKTRHIKGQLANRNIPISEIARTFHFASPSHFTTYCKKRLGITPSEFREKIAK | not soluble
7 | MGSDKIHHHHHHMKLMIGKLFWDTGASMPCYPSLENDMICDMLVVGSGEAGAQIAYSLVKMGMRVTLIEKNMISCGSTAANTGLLQFLHDKSLTSLIHTFGEEKGVRAYKLCYEALRTMEKVVPTLDIDPQFIPRNSLYYASKSEDVSFLQEEYKTLQNYEFPVEYFTASDIKERYPFTRQAALYTHGDAEVNPYLLAHSLLHKANQMGANIYEHTEAIHIKKRQNDLICYTKTGNQIVAKNIIMATGYEALFGKKEKNTTVETSYAVVTNKVDSFEGWHEQSLIWETARPYLYFRTYENRIIVGGLDEAMKIQTIGDTKLLHKRDVLINIIKEMFPQYKDIQAEYYWAAAFGGSHDGLPILKEDNKIHNLFYALPYGGNGTVYGMVFAKIFEQLFTNKESEDFSLFNR | not soluble
8 | MGSDKIHHHHHHMKLPTNSILISLKIGIVSDGQYGERAFEQIRRRFPTEWILLPYPSSPVVDEIELTIPPCDLYISYLRHPDIAMELIRTGIPALLGINLGPGFIAQAHEFNPAVIGPETMCSVLPNTKFCQVNEYAKVFGRPVFYLVMDGDRIVWCKTIRGSPCGSTDAAASEISGQILDQEALSRFALSICHNCRAPRFGKTCDKEKAGIIHLEELMRALKGVNPKKWEELIQVLEKIGCSFPNE | not soluble
9 | MGSDKIHHHHHHMKLSGWGRFPNVDCTVRVARSEVDVRAAVAASPLIARGNGRAYGDAALNRGLTLDMTGMDRMLSFEDGVLVAEAGVLLGDIIHTFLPRGWFPMVTPGTKYVSLGGAIAADVHGKNHHLDGSFRSCVDWVDLMGPDGAVTRVTREDDLFDWTLGGMGLTGVILRAQIRLRAVETSFIAQETRALTSLTDTLEAFEDTLDALYSVAWIDCSDGPHHGHSLLLLGRHATPGDLPKRQKPLEVKRRAKLPVPFGAPPFLFRGLWLRALNGIYWRRGAKRAGHTIVDWDSYFYPLDALANWNRLYGRNGFLQFQCALPLETAADGLAALMAEIAASQSGSVLSVLKRFGPQSGHFSFPMPGYTLALDFPANERSLALMERLDAITLAHKGRFYLAKDARMPEAVVKADARAEAFAAMRTQMGLRDRFASEQSERLGL | not soluble
10 | MGSDKIHHHHHHMKLSMPRFDQAPVLVVGDVMLDRYWHGGTSRISPEAPVPVVKVDQIEDRPGGAANVALNIAALGAPASLVGVTGDDEAAESLTNSLKAAGVVARFQRIADQPTIVKLRVMSRHQQLLRIDFEEPFNTDPLALSAEVYSLLDGIKVLVLSDYGKGALKNHQALIQAARKRGIPVLADPKGKDFAIYRGASLITPNLSEFEAIVGHCEDEAQLVTKGAQLMQELDLGALLVTRGEHGMTLLRPDQQALHLPARAREVFDVTGAGDTVISTLAAAIAAGEELPHAVALANLAAGIVVGKLGTAAISAPELRRAIQREEGSERGVLGLEQLLLAVDDARAHKEKIVFTNGCFDILHAGHVTYLEQARAQGDRLIVAVNDDASVSRLKGPGRPINSVDRRMAVLAGLGAVDWVISFPEGTPENLLTHVKPDVLVKGGDYGIDQVVGADIVQAYGGEVRVLGLVENSSTTAIVEKIRGQG | not soluble
11 | MGSDKIHHHHHHMKNFSLWCDFIENSFLDNEFLNLLSHGINGATSNPAIFKNAILNSPIYKDKILKLKEKKTKDIYEELAISDIQKAADKLAPLFYQKNDGFISIEIDPRLHDNTTLSLGEAKRLYSAIGKENIMIKIPATKASYEVMYELMKNGISVNATLIFSLEQSQKCFEALNAGLVEFRKNNIALKEQNTRTPQAVISIFVSRFDRLLNPKAKEQNRIGILNANLAYNNIYSKNEPNIRALFASTGVKGDDLPKDYYIKELLFENSVNTAPLDAIEAFKGKMHFKKPLMNFEIYTELNQIISQSEREKACNDLLSDGLEQFCIAFEDILKAL | not soluble
12 | MGSDKIHHHHHHMKNRAGEYRTNLTGELQYRSFLPYPLPPSPPIELDEETIKLLAKANRSIGILEGMSRQIPDIDLFVSMYVRKEALLSSQIEGTQVTLDDILDPNIEENTNQNVADVINYIKASHYGSARLAELPLCNRLLKEIHEILMQDVRGGEKSPGEFRSSQNWIGPAGSTLRDARYIPPHPEDMLEAMSDLEKFINSEDELDPLIKIALIHYQFETIHPFLDGNGRIGRLLIALYLINQNLLSHETLYISYFLKRNRIEYYDRLTEVRSKGNFEQWLKFFLLAAYESAQDAIDTIERILKLHYKNVEVVKNTGKASKTVMKVFNYLESSPIIDIKKTSLALELSFNTVSNAVNKLVELGILKQTENVRRSRVFAYEEYLEILRKDT | not soluble
13 | MGSDKIHHHHHHMKNRIEDRRIKYTKMVIKQSLITLLKNKPINKVTVTEICNLADINRSTFYTHYSNPYDLLDSIEEELFEEVKSSLRDSEGETKIENTVNEIFKAIAKNKELFKIFFSSHRDYGFLIKFFGAVYNNSIDNFKSAFKSNNDAQLEYLYNYILTGNASISYKWIKNGLKESPEEMASLVNRLIVHTMSFIK | not soluble
14 | MGSDKIHHHHHHMKQFSGLSRTIQGNHLLDTCAIDILKIGHRPLVLCAKQEYNTTVESFVKVLTCHGLIVKIVYMEEWDQNSVEECGEVGFRHRADHIIGIGNSSVAACTKAVADLLDLPAVLIPTSPFTTLPWVSVENKKRERPLFNESIQLIIADREQLLTQPTSELINGVVNTLLYLAAIKEVKRNHLFSLVDDILIRSFESVLLRGSLQAIEDFEARILSKEVQDVLEVLSTCVTLDLPSDAWDVIQQIESKLSERREDLVDEPLKRNVVLYLLLSYLTQESEEFQARLKWCQQLLLSANSSNLLSLEAVLKEIALEMGEDGSTRC | not soluble
15 | MGSDKIHHHHHHMKQYLRLRAFKAISFDLDDTLYHNTPYLQLATDKFFAFLNQNYPKTQTLHAQGWLTIKHDLFDLHPELKHDTSAARYAMVHDGLMSLGYKESEASEGAQKSMACFHFYRSDFTLDDKVLNLLKQLAESVTLVGISNGNVDASRIGLSESLAFVQHPGHGVKMKPHGDMFELACQRLNISPAELLHVGDHQMADVSGARRAGCQSVWFNPEKHPLTRRTGSILPHVELDDLNKLLNLV | not soluble
16 | MGSDKIHHHHHHMKRLITTGAAFLLAATLSACNGNNTSETQGDRTEQAETVQADLFSADSAYTFVQRQVNFGPRIPGTAPHRACGDWLVATLRSFGAAVQEQTAEIKAHDGTMLPMRNIIASYRPEATGRMLLMAHWDTRPVCDQDANPAMHTETFDGADDGGSGVGVLLEIARYLGQQKDLGMGIDIVFFDTEDYGSYGDDESWCLGSQYWSRNPHVAGYKAEAGILLDMVGAKGATFYWEYFSKSYAPGLISAVWQTAAALGYGNYFIQADGGALTDDHVPVIKNLGIPCIDIINYSSKNEHGFGDHWHTQRDNMQIIDKNVLDAVGETVIRYLDEQVKAASH | not soluble
17 | MGSDKIHHHHHHMKRPGFIERHHLWTEIQKEASEKIKTIVKEQDLLLIRTAWSDQHGIVRSKSLLPQAFFSALENGMQISTGTFLLDTGGAIVFNPFVPGGSLDMPLMTGAPNLVAVPDPDTFKIVPWAKRTGFILCDEYFQNGQPMPFSSRGILRQSLIDLHQRGLEHIVGLEVEWYLAKLEDPMLAIANVGSSGKPGEPAKVSAVDHSFQYLLESHNPEIQDLLGLLAENLVEMKLPLRSVENEGGVGQFEFTFDPIPALQAADTMMIFRMATKQICRQQGYIASFMCRPGLQGSSSNGWHLHQSLVDLTTGENAFMSANSQTLTSDLAKHFVGGLLKHANAASVFTTPTINGYKRFRPYSLAPDRAGWGLENRGAMIRLQGGFDDPSTHIENRVGEPAANPYLYMASQLISGLDGVDCKLDPGSPTEEPYTTENPILPKSLSEAISYLSQSELFPQKMGQQFINFIIKMKESEINRFLQSVADQPPEEYLKQVTNWEQREYFELF | not soluble
18 | MGSDKIHHHHHHMKSYFVTMGFNETFLLRLLNETSAQKEDSLVIVVPSPIVSGTRAAIESLRAQISRLNYPPPRIYEIEITDFNLALSKILDIILTLPEPIISDLTMGMRMINTLILLGIIVSRKRFTVYVRDEGGGSRVISFNDNTIRALMRDYSREEMKLLNVLYETKGTGITELAKMLDKSEKTLINKIAELKKFGILTQKGKDRKVELNELGLNVIKLNKSVIESSKSSEELVKENKGKEVNIPY | not soluble

Reference: the DeepSol protein solubility set
